Source: patent US11110182B2, “Multifunctional RNA nanoparticles and methods for treating cancer and therapeutic resistant cancer” (University of Cincinnati, priority 2016, dated 2021)

Tested on: HER2-overexpressing BT474 cells
Test: pRNA nanoparticle cellular uptake assay (confocal, flow cytometry), BT474
Type: cell-based, human
Details: for cellular uptake by flow cytometry: BT474, 3 h incubation at 37° C.; for binding and internalization into cells: BT474, AF647-conjugated, 10 μg/mL, confocal microscopy
Method: FIG. 2A) Confocal microscopy analyses of the internalization of AF647-labeled control and pRNA-HER2apt-siMED1 nanoparticles by BT474 cells. Scale bar: 10 μm. FIG. 2B) Flow cytometry assays of the cellular uptake of AF647-labeled control and pRNA-HER2apt-siMED1 nanoparticles by BT474 cells. FIG. 2C) IVIS Lumina live imaging of BT474 orthotopic xenograft mice 24 hrs after i.v. injection of indicated AF647-labeled pRNA nanoparticles (10 mg/Kg). FIG. 2D) Major organs and tumors of above mice were excised and imaged for AF647 fluorescence. FIG. 2E) Frozen tumor sections were examined for localization of AF647-labeled pRNA nanoparticles (red) using confocal microscopy. The blood vessels were stained with anti-CD31 primary antibody and Alexa488-conjugated secondary antibody (green). The nuclei were stained with DAPI (blue). Scale bar: 50 μm. FIG. 2F) The fluorescence intensity of AF647-labeled pRNA nanoparticles (red) in frozen tumor sections was quantified with Image-pro Plus software.
Cell culture. Human breast cancer luciferase-overexpressing BT474 and MDA-MB-231 cells were maintained in DMEM medium (Hyclone, Thermo Scientific) supplemented with 10% fetal bovine serum (FBS, Sigma) and 1% penicillin/streptomycin (Corning) at 37° C. in a humidified atmosphere with 5% CO2.^53 • Generation of pRNA nanoparticles. The two strands of pRNA were synthesized with the DNA templates, which were amplified with overlapping primers (Sigma) by PCR methods, using a T7 promoter-controlled in vitro RNA transcription system as previously described^33 (Table 1). All the CTP and UTP used for synthesis of the pRNA nanoparticles were 2′-fluoro modified, except the control unmodified pRNA nanoparticles used in the stability assays. Following an overnight transcription at 37° C., RNA strands were purified using RNA clean and concentrator kits (ZYMO research) and examined by 8 M urea denatured 8% PAGE gel. pRNA nanoparticles were assembled by mixing the equal molar amounts of p1 and p2 strands and gradually annealing from 90° C. to 20° C. in 1×RNA annealing buffer containing 50 mM Tris-HCl (pH 7.5), 50 mM NaCl and 1 mM EDTA on a PCR machine. […] The hydrodynamic diameter and Tm value of pRNA nanoparticles were determined using dynamic light scattering and TGGE assay, respectively, as previously described.^54 The AFM imaging of the pRNA nanoparticles was performed at the University of Nebraska Medical Center imaging facility as previously reported.^55 Briefly, the pRNA nanoparticles (5 μL) were deposited on APS modified mica ^56 for a total of 2 min of incubation time. […]

Molecule | cellular uptake by flow cytometry | binding and internalization into cells
pRNA-HER2apt-siMED1: 3-WJ pRNA nanoparticle bearing a HER2-targeting RNA aptamer and two different MED1 siRNAs; strands p1 SEQ ID NO: 3, p2 SEQ ID NO: 4 (nucleic acid, 2'-F modification; third strand may lack entry; pRNA-HER2apt-siMED1, p1; pRNA-HER2apt-siMED1, p2) chain 1: GGACAGUGAAAGUGAGUCAAAGGAUCAAUCAUGGCCAAAGAUGUUACUUUGAGAGCCUU chain 2: GGCUCUCAAAGUAACAUCUAAGGCCAUGUGUAUGUGGGGGGAGGACGAUGCGGUCUGCUGUGCUUGAUAUGCCCCAGACGACUCGCCCCCCACAUACUUUGUUGAUCCAAUGACUCACUUUCACUGUCCUU | effectively taken up | can bind and be readily internalized
pRNA-HER2apt^mut-siMED1: control pRNA nanoparticle with mutant HER2 aptamer; strands p1 SEQ ID NO: 5, p2 SEQ ID NO: 6 (nucleic acid, pRNA-HER2apt(mut)-siMED1, p1; pRNA-HER2apt(mut)-siMED1, p2) chain 1: GGACAGUGAAAGUGAGUCAAAGGAUCAAUCAUGGCCAAAGAUGUUACUUUGAGAGCCUU chain 2: GGCUCUCAAAGUAACAUCUAAGGCCAUGUGUAUGUGGGAUGAGGAGUAUGAAGAUACCUGUACUUGAUAUGCCCCAGACGACAUUCCCCCCACAUACUUUGUUGAUCCAAUGACUCACUUUCACUGUCCUU | notably decreased the uptake efficiency | dramatically impaired
